{
  "source": "patent US20250297032A1",
  "about": "(CONCEPT TO MEDICINE BIOTECH, published 2025)",
  "binders": {"B1": {"name": "G14 (antibody, V domains shown)", "VH": "QVQLLESGGGVVQPGRSLRLSCAASGFTFSSYAMHWVRQAPGKGLEWVAFISHDGNRNSYADSVRGRFTISRDNSKNTLYLQMNSLRAEDTAVYYCARDLGYYNGFSYWGQGTLVTVSA", "VL": "DIVMTQSPSSVSASVGDRVTITCRASQGISSWLAWYQQKPGKAPKLLIYAASSLQSGVPSRFSGSGSGTDFTLTISSLQPEDFATYYCQQANSFPPTFGPGTKVDIK", "notes": "Full human antibody from a Fab phage library; Tested as a mAb (detected with anti-human IgG, captured on Protein A); also called FAP-G14; FAP-G14-Bio (biotin-conjugated form)"}, "B2": {"name": "I37 (antibody, V domains shown)", "VH": "QLQLVESGGGLVQPGGSLRLSCAASGFTFSSYAMSWVRQAPGKGLEWVSAISGSGGSTYYADSVKGRFTISRDNSKNTLYLQMNSLRAEDTAVYYCARDKPWGGSFDYWGQGTLVTVSA", "VL": "B1 VL with V3Q, M4L, V11L, P96V", "notes": "Tested as a mAb; also called FAP-I37"}, "B3": {"name": "J40 (antibody, V domains shown)", "VH": "EVQLLESGGGLVQPGGSLRLSCAASGFTFSSYAMSWVRQAPGKGLEWVSAISGSGGSTYYADSVKGRFTISRDNSKNTLYLQMNSLRTDDTAVYYCARDLTTSTGWESWGQGTLVTVSA", "VL": "B1 VL with D1N, V3Q, P100Q, V104L, D105E", "notes": "Tested as a mAb; also called FAP-J40; FAP-J40-Bio (biotin-conjugated form)"}, "B4": {"name": "I30 (antibody, V domains shown)", "VH": "not shown", "VL": "B1 VL with D1A, V3R, M4L, P100G, D105E", "notes": "Tested as a mAb; also called 130; FAP-I30"}},
  "key": {"[1]": {"target": "T1, mouse FAPα-His protein (mouse, UniProt P97321 26-761, limits assumed)", "T1 construct": "not shown: His tag", "T1 sequence (looked up)": "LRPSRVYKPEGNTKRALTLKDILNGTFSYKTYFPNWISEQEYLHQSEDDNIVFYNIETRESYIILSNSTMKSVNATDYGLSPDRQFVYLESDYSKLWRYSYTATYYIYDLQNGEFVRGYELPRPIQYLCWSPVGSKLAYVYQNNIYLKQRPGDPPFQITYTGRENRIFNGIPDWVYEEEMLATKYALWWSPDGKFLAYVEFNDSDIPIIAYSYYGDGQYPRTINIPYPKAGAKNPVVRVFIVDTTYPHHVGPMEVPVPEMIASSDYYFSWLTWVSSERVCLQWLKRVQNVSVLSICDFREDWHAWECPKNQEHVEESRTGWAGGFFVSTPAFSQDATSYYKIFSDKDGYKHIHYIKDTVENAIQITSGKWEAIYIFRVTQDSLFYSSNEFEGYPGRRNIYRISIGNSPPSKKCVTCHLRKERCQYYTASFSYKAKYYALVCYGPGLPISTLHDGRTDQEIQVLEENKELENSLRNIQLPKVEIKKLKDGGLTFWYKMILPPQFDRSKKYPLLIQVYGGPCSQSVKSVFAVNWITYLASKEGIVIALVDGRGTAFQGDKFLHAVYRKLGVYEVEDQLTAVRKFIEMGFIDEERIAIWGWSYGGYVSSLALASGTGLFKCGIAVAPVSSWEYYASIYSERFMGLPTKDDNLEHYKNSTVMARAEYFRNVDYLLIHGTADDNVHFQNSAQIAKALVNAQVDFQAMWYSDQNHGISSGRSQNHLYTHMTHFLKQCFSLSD", "test": "ELISA, plate coated with mouse FAPα-His, anti-human IgG-HRP, OD 450 nm", "method": "(§1) Briefly, microtiter plates were coated with mouse FAPα-His protein at 0.5 ug/ml in PBS, 100 μl/well at 4° C. overnight, then blocked with 150 μl/well of 1% BSA. Three-fold dilutions of tested antibodies starting from 1 μg/ml were added to each well and incubated for 1 hour at 37° C. The plates were washed with PBS/Tween and then incubated with Anti-Human IgG (H&L) (GOAT) Antibody Peroxidase Conjugated for 30 mins at 37° C. After washing, the plates were developed with TMB substrate and analyzed by spectrophotometer at OD 450 nm."}, "[2]": {"target": "T2, human FAPα-His tag (Sino biological) (human, UniProt Q12884 26-760)", "T2 construct": "Bought protein; also called human FAPα-His protein; not shown: His tag", "T2 sequence (looked up)": "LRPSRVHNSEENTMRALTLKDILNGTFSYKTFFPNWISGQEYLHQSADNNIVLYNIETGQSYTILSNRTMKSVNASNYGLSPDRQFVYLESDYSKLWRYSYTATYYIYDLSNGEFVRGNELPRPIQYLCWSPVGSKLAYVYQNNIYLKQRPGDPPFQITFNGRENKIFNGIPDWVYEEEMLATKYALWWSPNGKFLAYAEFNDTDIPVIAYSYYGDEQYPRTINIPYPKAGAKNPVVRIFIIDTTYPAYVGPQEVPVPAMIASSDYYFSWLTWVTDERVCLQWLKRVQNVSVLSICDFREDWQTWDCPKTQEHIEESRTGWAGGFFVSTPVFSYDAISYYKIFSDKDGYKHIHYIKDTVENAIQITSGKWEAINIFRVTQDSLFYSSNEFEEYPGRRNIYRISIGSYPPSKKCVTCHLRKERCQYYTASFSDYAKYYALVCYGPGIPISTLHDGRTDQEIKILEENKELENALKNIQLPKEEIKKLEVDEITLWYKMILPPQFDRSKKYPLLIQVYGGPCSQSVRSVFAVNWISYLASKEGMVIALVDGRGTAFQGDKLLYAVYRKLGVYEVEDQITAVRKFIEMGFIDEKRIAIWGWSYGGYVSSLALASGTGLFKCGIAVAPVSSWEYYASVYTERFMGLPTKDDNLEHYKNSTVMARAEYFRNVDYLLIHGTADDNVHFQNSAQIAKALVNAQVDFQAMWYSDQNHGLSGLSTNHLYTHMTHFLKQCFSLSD", "test": "competitive ELISA on coated human FAPα; competitor (detected): FAP-J40-Bio", "method": "Briefly, microtiter plates were coated with human FAPα proteins at 0.5 μg/ml in PBS, 100 μl/well at 4° C. overnight, then blocked with 150 μl/well of 1% BSA. Serial dilutions of chimeric antibodies as well as biotin-conjugated reference mAb were added to each well and incubated for 1 hour at RT. The plates were washed with PBS/Tween and then incubate with streptavidin-HRP for 15 mins at RT. After washing, the plates were developed with TMB substrate and analyzed by spectrophotometer at OD 450 nm. According to the competition ability to reference mAbs (Benchmark, or “BMK”), all tested FAPα mAbs binds to the similar epitope as shown in Table 5."}, "[3]": {"target": "T1, mouse FAPα-His protein", "test": "ELISA, coated mouse FAPα-His", "method": "as §1"}},
  "note": "Substitutions are numbered along the chain they refer to.",
  "data": [
    {"binder": "B1", "values": [
      {"measurement": "binding result", "setting": "[1]", "value": "no binding (tested: 1000 ng/ml)"},
      {"measurement": "OD 450 nm", "setting": "[2]", "value": 0.293, "unit": "OD 450 nm"}
    ]},
    {"binder": "B2", "values": [
      {"measurement": "EC50", "setting": "[3]", "value": 5.2, "unit": "ng/mL"},
      {"measurement": "OD 450 nm", "setting": "[2]", "value": 0.314, "unit": "OD 450 nm"}
    ]},
    {"binder": "B3", "values": [
      {"measurement": "binding result", "setting": "[1]", "value": "no binding (tested: 1000 ng/ml)"},
      {"measurement": "OD 450 nm", "setting": "[2]", "value": 0.261, "unit": "OD 450 nm"}
    ]},
    {"binder": "B4", "values": [
      {"measurement": "binding result", "setting": "[1]", "value": "no binding (tested: 1000 ng/ml)"},
      {"measurement": "OD 450 nm", "setting": "[2]", "value": 0.16, "unit": "OD 450 nm"}
    ]}
  ]
}
